Publication PMC3273627 (Journal of Molecular Biology, 2011)

Target: actin filaments (UniProt P68135 1-377)
Assay: co-sedimentation

B1: Dys ΔH2-R19 (other)
chain: MLWWEEVEDCYEREDVQKKTFTKWINAQFSKFGKQHIDNLFSDLQDGKRLLDLLEGLTGQKLPKEKGSTRVHALNNVNKALRVLQKNNVDLVNIGSTDIVDGNHKLTLGLIWNIILHWQVKNVMKTIMAGLQQTNSEKILLSWVRQSTRNYPQVNVINFTSSWSDGLALNALIHSHRPDLFDWNSVVSQHSATQRLEHAFNIAKCQLGIEKLLDPEDVATTYPDKKSILMYITSLFQVLPQQVSIEAIQEVEMLPRTSSKVTREEHFQLHHQMHYSQQITVSLAQGYEQTSSSPKPRFKSYAFTQAAYVATSDSTQSPYPSQHLEAPRDKSLDSSLMETEVNLDSYQTALEEVLSWLLSAEDTLRAQGEISNDVEEVKEQFHAHEGFMMDLTSHQGLVGNVLQLGSQLVGKGKLSEDEEAEVQEQMNLLNSRWECLRVASMEKQSKLHKVLMDLQNQKLKELDDWLTKTEERTKKMEEEPFGPDLEDLKCQVQQHKVLQEDLEQEQVRVNSLTHMVVVVDESSGDHATAALEEQLKVLGDRWANICRWTEDRWIVLQDILLKWQHFTEEQCLFSTWLSEKEDAMKNIQTSGFKDQNEMMSSLHKISTLKIDLEKKKPTMEKLSSLNQDLLSALKNKSVTQKMEIWMENFAQRWDNLTQKLEKSSAQISQPDRAPGLSTTGASASQTVTLVTQSVVTKETVISKLEMPSSLLLEVPALADFNRAWTELTDWLSLLDRVIKSQRVMVGDLEDINEMIIKQKATLQDLEQRRPQLEELITAAQNLKNKTSNQEARTIITDRIERIQIQWDEVQEQLQNRRQQLNEMLKDSTQWLEAKEEAEQVIGQVRGKLDSWKEGPHTVDAIQKKITETKQLAKDLRQRQISVDVANDLALKLLRDYSADDTRKVHMITENINTSWGNIHKRVSEQEAALEETHRLLQQFPLDLEKFLSWITEAETTANVLQDASRKEKLLEDSRGVRELMKPWQDLQGEIETHTDIYHNLDENGQKILRSLEGSDEAPLLQRRLDNMNFKWSELQKKSLNIRSHLEASSDQWKRLHLSLQELLVWLQLKDDELSRQAPIGGDFPAVQKQNDIHRAFKRELKTKEPVIMSTLETVRIFLTEQPLEGLEKLYQEPRELPPEERAQNVTRLLRKQAEEVNAEWDKLNLRSADWQRKIDEALERLQELQEAADELDLKLRQAEVIKGSWQPVGDLLIDSLQDHLEKVKALRGEIAPLKENVNRVNDLAHQLTTLGIQLSPYNLSTLEDLNTRWRLLQVAVEDRVRQLHEAHRDFGPASQHFLSTSVQGPWERAISPNKVPYYINHETQTTCWDHPKMTELYQSLADLNNVRFSAYRTAMKLRRLQKALCLDLLSLSAACDALDQHNLKQNDQPMDILQIINCLTTIYDRLEQEHNNLVNVPLCVDMCLNWLLNVYDTGRTGRIRVLSFKTGIISLCKAHLEDKYRYLFKQVASSTGFCDQRRLGLLLHDSIQIPRQLGEVASFGGSNIEPSVRSCFQFANNKPEIEAALFLDWMRLEPQSMVWLPVLHRVAAAETAKHQAKCNICKECPIIGFRYRSLKHFNYDICQSCFFSGRVAKGHKMHYPMVEYCTPTTSGEDVRDFAKVLKNKFRTKRYFAKHPRMGYLPVQTVLEGDNMETPVTLINFWPVDSAPASSPQLSHDDTHSRIEHYASRLAEMENSNGSYLNDSISPNESIDDEHLLIQHYCQSLNQDSPLSQPRSPAQILISLESEERGELERILADLEEENRNLQAEYDRLKQQHEHKGLSPLPSPPEMMPTSPQSPRDAELIAEAKLLRQHKGRLEARMQILEDHNKQLESQLHRLRQLLEQPQAEAKVNGTTVSSPSTSLQRSDSSQPMLLRVVGSQTSESMGEEDLLSPPQDTSTGLEEVMEQLNNSFPSSRGRNAPGKPMREDTM
In the case of B1, the Kd is reported as 3.53 µM.
